According to patent US20140051120A1 (Genentech, published 2014):
Several values for one entry are separate records, joined by “and”; a condition that tells them apart may be missing. Equal values may be shown once. Read-outs that look alike come from different tables or passages of the source. Where no end group is shown, it is not given here.

Legend:
[1] = target: T1, mouse EGFL7 (mEGFL7-CB-His) (mouse, UniProt Q9QXT5 22-275); test: cell-based or functional assay
T1 sequence: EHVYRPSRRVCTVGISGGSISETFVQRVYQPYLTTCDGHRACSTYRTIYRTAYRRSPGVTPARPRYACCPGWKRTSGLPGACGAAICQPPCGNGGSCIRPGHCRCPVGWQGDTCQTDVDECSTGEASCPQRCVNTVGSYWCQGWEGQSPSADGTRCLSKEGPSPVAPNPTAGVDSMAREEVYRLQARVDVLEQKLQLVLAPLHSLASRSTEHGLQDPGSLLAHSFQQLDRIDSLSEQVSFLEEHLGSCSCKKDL

[2] = target: T2, p2S (p2 peptide biotinylated through its free cysteine) (human, also: biotinylated (maleimide PEO2-biotin) on one of the two Cys, which one not given here); test: SPR (Biacore), binding to p2S, KD relative to ch4F11
T2 construct: The peptide has two cysteines; also called b-p2S
T2 peptide: RPRYACCPGWKRT

[3] = target: T3, human EGFL7 (EGFL7-CB-His) (human, UniProt Q9UHF1 23-273, limits assumed); test: cell-based or functional assay
T3 sequence: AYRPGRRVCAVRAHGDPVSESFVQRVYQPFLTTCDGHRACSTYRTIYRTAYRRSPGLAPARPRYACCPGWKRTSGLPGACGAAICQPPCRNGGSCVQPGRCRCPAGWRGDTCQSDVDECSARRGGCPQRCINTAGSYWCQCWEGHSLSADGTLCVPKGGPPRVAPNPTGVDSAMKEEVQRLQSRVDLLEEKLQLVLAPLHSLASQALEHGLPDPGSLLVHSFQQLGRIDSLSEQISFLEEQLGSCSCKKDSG

[4] = target: T2, p2S (p2 peptide biotinylated through …); test: SPR (BIAcore-2000), IgG injected over immobilized p2S peptide;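 further: CM5 chip with immobilized peptide, IgG at 0.5–1000 nM in PBST, 3 min association and 3.5 min dissociation, reference-cell subtracted, rates fitted by 1:1 Langmuir model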
[5] = target: EGFL7 coated on plates in the cell adhesion assay (human or mouse, not told apart at this place); test: cell-based or functional assay
[6] = target: T4, truncated human EGFL7 (residues 1-182) (human, UniProt Q9UHF1 24-182); test: phage ELISA on truncated huEGFL7 immobilized on a microtiter plate
T4 construct: Expressed in CHO cells; The range as printed starts at Met 1; also called truncated EGFL7; truncated huEGFL7
T4 chain: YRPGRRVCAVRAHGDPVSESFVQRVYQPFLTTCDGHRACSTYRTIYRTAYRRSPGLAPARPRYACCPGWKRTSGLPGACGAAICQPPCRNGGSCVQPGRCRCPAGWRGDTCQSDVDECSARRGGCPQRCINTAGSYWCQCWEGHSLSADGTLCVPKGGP

[7] = target: T3, human EGFL7 (EGFL7-CB-His); test: cell-based or functional assay; remark: listed apart in the source
[8] = target: T1, mouse EGFL7 (mEGFL7-CB-His); test: SPR (Biacore), IgG over immobilized mEGFL7-CB at 37 C;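 further: IgG injected as twofold series from 0.5 to 1000 nM, 3 min association and 3.5 min dissociation, reference flow cell subtracted, kinetics fitted to 1:1 Langmuir model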
[9] = target: T5, p5 peptide of EGFL7 (human); test: SPR (Biacore), IgG over immobilized P5 peptide at 37 C, n = 3
T5 construct: also called Peptide P5
T5 peptide: RACSTYRTIYRTA

[10] = target: T4, truncated human EGFL7 (residues 1-182); test: phage ELISA on truncated huEGFL7 immobilized on a microtiter plate
[11] = target: T1, mouse EGFL7 (mEGFL7-CB-His); test: SPR (Biacore), IgG over immobilized mEGFL7-CB at 37 C, n = 2
[12] = target: T5, p5 peptide of EGFL7; test: SPR (Biacore), IgG over immobilized P5 peptide at 37 C, n = 2
[13] = target: T5, p5 peptide of EGFL7; test: SPR (Biacore), IgG over immobilized P5 peptide at 37 C;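 further: IgG variants injected at 0.5–1000 nM (2-fold series), 3 min association and 3.5 min dissociation, reference flow cell subtracted, kinetics fitted with a 1:1 Langmuir model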
[14] = target: T1, mouse EGFL7 (mEGFL7-CB-His); test: cell-based or functional assay; remark: listed apart in the source

B1: 4F11.v17 IgG (antibody, V domains shown)
VH: EVQLVESGGGLVQPGGSLRLSCAASGHTFTTYGMSWVRQAPGKGLEWVGWINTHSGVPTYADDFKGRFTISLDNSKNTAYLQMNSLRAEDTAVYYCARLGSYAVDYWGQGTLVTVSS
VL: DIQMTQSPSSLSASVGDRVTITCKASQSVDYSGDSYMSWYQQKPGKAPKLLIYGASYRESGVPSRFSGSGSGTDFTLTISSLQPEDFATYYCQQNNEEPYTFGQGTKVEIKR
notes: IgG; Library 1 framework; also called hu4F11.v17
IC50 (read off the curve), HUVEC adhesion [1]: ~10 µg/mL | Fold change in KD variant/(chimera) [2]: 0.93 fold | Cell Adhesion Assay (human EGFL7) Variant/ch4F11 (fold) [3]: 0.86 fold

B2: 4F11.v6 IgG (antibody, V domains shown)
VH: EVQLVESGGGLVQPGGSLRLSCAASGHTFTTYGMSWVRQAPGKGLEWVGWINTHSGVPTYADDFKGRFTISRDNSKNTVYLQMNSLRAEDTAVYYCARLGSSAVDYWGQGTLVTVSS
VL: DIQMTQSPSSLSASVGDRVTITCKASQSVDYDGDSYMSWYQQKPGKAPKLLIYGASYLESGVPSRFSGSGSGTDFTLTISSLQPEDFATYYCQQNNEDPYTFGQGTKVEIK
notes: IgG; Kabat numbering
Kd [4]: 19.5 nM | koff [4]: 0.0024 s⁻¹ | kon [4]: 123000 M⁻¹ s⁻¹ | Cell Adhesion Assay Variant/ch4F11 (fold) [5]: 4.01 fold

B3: 4F11.v10 IgG (antibody, V domains shown)
VH: EVQLVESGGGLVQPGGSLRLSCAASGHTFTTYGMSWVRQAPGKGLEWVGWINTHSGVPTYADDFKGRFTISRDNSKNTVYLQMNSLRAEDTAVYYCARLGSYAVDYWGQGTLVTVSS
VL: DIQMTQSPSSLSASVGDRVTITCKASQSVDYDGDSYMSWYQQKPGKAPKLLIYGASYLESGVPSRFSGSGSGTDFTLTISSLQPEDFATYYCQQNNEDPYTFGQGTKVEIK
notes: IgG; Kabat numbering
Kd [4]: 27.4 nM | koff [4]: 0.00197 s⁻¹ | kon [4]: 72000 M⁻¹ s⁻¹ | Cell Adhesion Assay Variant/ch4F11 (fold) [5]: 4.38 fold

B4: 4F11.v22 IgG (antibody, V domains shown)
VH: EIQLVESGGGLVQPGGSLRLSCAASGHTFTTYGMSWVRQAPGKGLEWMGWINTHSGVPTYADDFKGRFTISLDNSKSTAYLQMNSLRAEDTAVYFCARLGSYAVDYWGQGTLVTVSS
VL: DIQMTQSPSSLSASVGDRVTITCKASQSVDYSGDSYMSWYQQKPGKAPKLLIYGASYRESGVPSRFSGSGSGTDFTLTISSLQPEDFATYYCQQNNEEPYTFGQGTKVEIKR
notes: IgG; Library 2 framework
Fold change in KD variant/(chimera) [2]: 1 fold | Cell Adhesion Assay (human EGFL7) Variant/ch4F11 (fold) [3]: 0.81 fold

B5: phage displaying 4F11.v1 Fab (Fab, V domains shown)
VH: EVQLVESGGGLVQPGGSLRLSCAASGHTFTTYGMSWVRQAPGKGLEWVGWINTHSGVPTYADDFKGRFTISRDNSKNTLYLQMNSLRAEDTAVYYCARLGSSAVDYWGQGTLVTVSS
VL: DIQMTQSPSSLSASVGDRVTITCKASQSVDYDGDSYMSWYQQKPGKAPKLLIYGASNLESGVPSRFSGSGSGTDFTLTISSLQPEDFATYYCQQNNEDPYTFGQGTKVEIKR
notes: Monovalent Fab-g3 display on M13 phage; heavy chain VH-CH1 fused to minor coat protein P3; also called 4F11.v1 phage; 4F11-graft Fab on phage
binding result [6]: binds

B6: 18F7.v6 IgG (antibody, V domains shown)
VH: EVQLVESGGGLVQPGGSLRLSCAASGYTFIDYYMNWVRQAPGKGLEWVGDINLDNGGTHYNQKFKGRFTISRDKSKNTAYLQMNSLRAEDTAVYYCAREGVYHDYDDYAMDYWGQGTLVTVSS
VL: DIQMTQSPSSLSASVGDRVTITCRTSQSLVHINGITYLHWYQQKPGKAPKLLIYRVSNRFSGVPSRFSGSGSGTDFTLTISSLQPEDFATYYCGQSTHVPLTFGQGTKVEIKR
notes: IgG; also called hu18F7.v6
IC50, HUVEC adhesion [left panel] [7]: 5.62 nM | Kd [8]: 0.408 nM | koff [8]: 2.04e-05 s⁻¹ | kon [8]: 50000 M⁻¹ s⁻¹ | Kd [9]: 3.21 nM | koff [9]: 0.000389 s⁻¹ | kon [9]: 121000 M⁻¹ s⁻¹

B7: phage displaying 18F7-graft Fab (Fab, V domains shown)
VH: EVQLVESGGGLVQPGGSLRLSCAASGYTFIDYYMNWVRQAPGKGLEWVGDINLDNGGTHYNQKFKGRFTISRDNSKNTLYLQMNSLRAEDTAVYYCAREGVYHDYDDYAMDYWGQGTLVTVSS
VL: DIQMTQSPSSLSASVGDRVTITCRTSQSLVHINGITYLHWYQQKPGKAPKLLIYRVSNRFSGVPSRFSGSGSGTDFTLTISSLQPEDFATYYCSQSTHVPLTFGQGTKVEIKR
notes: Monovalent Fab-g3 display on M13 phage; heavy chain VH-CH1 fused to P3; also called 18F7-graft phage
binding result [10]: binds

B8: 18F7.v6A IgG (antibody, V domains shown)
VH: EVQLVESGGGLVQPGGSLRLSCAASGYTFIDYYMNWVRQAPGKGLEWVGDINLDNGGTHYNQKFKGRFTISRDKSKNTAYLQMNSLRAEDTAVYYCAREGVYHDYDDYAMDYWGQGTLVTVSS
VL: DIQMTQSPSSLSASVGDRVTITCRTSQSLVHISGITYLHWYQQKPGKAPKLLIYRVSNRFSGVPSRFSGSGSGTDFTLTISSLQPEDFATYYCGQSTHVPLTFGQGTKVEIK
notes: IgG; Variant of 18F7.v6
Kd [11]: 7.29 nM | koff [11]: 0.000404 s⁻¹ | kon [11]: 55000 M⁻¹ s⁻¹ | Kd [12]: 3.74 nM | koff [12]: 0.00137 s⁻¹ | kon [12]: 373000 M⁻¹ s⁻¹

B9: 18F7.v6K IgG (antibody, V domains shown)
VH: EVQLVESGGGLVQPGGSLRLSCAASGYTFIDYYMNWVRQAPGKGLEWVGDINLDNSGTHYNQKFKGRFTISRDKSKNTAYLQMNSLRAEDTAVYYCAREGVYHDYDDYAMDYWGQGTLVTVSS
VL: DIQMTQSPSSLSASVGDRVTITCRTSQSLVHINAITYLHWYQQKPGKAPKLLIYRVSNRFSGVPSRFSGSGSGTDFTLTISSLQPEDFATYYCGQSTHVPLTFGQGTKVEIKR
notes: IgG; also called hu18F7.v6k; h18F7.v6k
Kd [13]: 5.2 nM | koff [13]: 0.000662 s⁻¹ | kon [13]: 127000 M⁻¹ s⁻¹ | IC50, HUVEC adhesion [right panel] [14]: 6.37 µg/ml and 42 nM | Kd [8]: 1.6 nM | koff [8]: 4.54e-05 s⁻¹ | kon [8]: 28000 M⁻¹ s⁻¹

B10: 18F7.v6B IgG (antibody, V domains shown)
VH: EVQLVESGGGLVQPGGSLRLSCAASGYTFIDYYMNWVRQAPGKGLEWVGDINLDSGGTHYNQKFKGRFTISRDKSKNTAYLQMNSLRAEDTAVYYCAREGVYHDYDDYAMDYWGQGTLVTVSS
VL: DIQMTQSPSSLSASVGDRVTITCRTSQSLVHINGITYLHWYQQKPGKAPKLLIYRVSNRFSGVPSRFSGSGSGTDFTLTISSLQPEDFATYYCGQSTHVPLTFGQGTKVEIK
notes: IgG; Variant of 18F7.v6
Kd [11]: 2.68 nM | koff [11]: 0.000174 s⁻¹ | kon [11]: 79000 M⁻¹ s⁻¹ | Kd [12]: 3.22 nM | koff [12]: 0.000638 s⁻¹ | kon [12]: 196000 M⁻¹ s⁻¹
